How the values were obtained:
[1] = molecular target: T1, human insulin-like growth factor I receptor (IGF-IR) (human, UniProt P08069 31-1367); test: cell-based or functional assay
[2] = molecular target: T1, human insulin-like growth factor I …; test: competition with [125I]-IGF-I for binding to IGF-IR-transfected NIH-3T3 cells, scintillation counting
Method: […] experiments were performed to quantitate the ability of the antibody of the invention to inhibit IGF-I binding to IGF-IR in a cell-based assay. IGF-IR-transfected NIH-3T3 cells (5×10⁴/ml) were plated in 100 μl of DMEM high glucose media supplemented with L-glutamine (0.29 mg/ml), 10% heat-inactivated FBS, and 500 μg/ml each of geneticin, penicillin and streptomycin in 96-well U-bottom plates. The plates were incubated at 37° C., 5% CO₂ overnight to allow cells to attach. The media was decanted from the plates and replaced with 100 μl fresh media per well. For testing, the antibody was diluted in assay media (DMEM high glucose media supplemented with L-glutamine, 10% heat-inactivated FBS, 200 μg/ml BSA and 500 μg/ml each of geneticin, penicillin and streptomycin) to the desired final concentration. All samples were performed in triplicate. The plates were incubated at 37° C. for ten minutes. The [¹²⁵I]-IGF-I was diluted to a concentration of 1 μCi/ml in assay media and added 50 μl per well of the plate. As a control for background radioactivity, cold IGF-I was added to a final concentration of 100 ng/ml. […] The samples were transferred to a scintillation plate, 150 μl OptiPhase Supermix was added and the signal was read using a Wallace MicroBeta counter. […]

cynomolgus monkey IGF-IR = molecular target: T2, cynomolgus monkey IGF-IR (cynomolgus monkey, UniProt G7P9I7 31-1343); test: flow cytometry, biotinylated antibody on cynomolgus tissue culture cells, half maximal binding
T2 construct: whole, on cells; also called IGF-IR on cynomolgus tissue culture cells
T2 sequence (G7P9I7 entry or part of it): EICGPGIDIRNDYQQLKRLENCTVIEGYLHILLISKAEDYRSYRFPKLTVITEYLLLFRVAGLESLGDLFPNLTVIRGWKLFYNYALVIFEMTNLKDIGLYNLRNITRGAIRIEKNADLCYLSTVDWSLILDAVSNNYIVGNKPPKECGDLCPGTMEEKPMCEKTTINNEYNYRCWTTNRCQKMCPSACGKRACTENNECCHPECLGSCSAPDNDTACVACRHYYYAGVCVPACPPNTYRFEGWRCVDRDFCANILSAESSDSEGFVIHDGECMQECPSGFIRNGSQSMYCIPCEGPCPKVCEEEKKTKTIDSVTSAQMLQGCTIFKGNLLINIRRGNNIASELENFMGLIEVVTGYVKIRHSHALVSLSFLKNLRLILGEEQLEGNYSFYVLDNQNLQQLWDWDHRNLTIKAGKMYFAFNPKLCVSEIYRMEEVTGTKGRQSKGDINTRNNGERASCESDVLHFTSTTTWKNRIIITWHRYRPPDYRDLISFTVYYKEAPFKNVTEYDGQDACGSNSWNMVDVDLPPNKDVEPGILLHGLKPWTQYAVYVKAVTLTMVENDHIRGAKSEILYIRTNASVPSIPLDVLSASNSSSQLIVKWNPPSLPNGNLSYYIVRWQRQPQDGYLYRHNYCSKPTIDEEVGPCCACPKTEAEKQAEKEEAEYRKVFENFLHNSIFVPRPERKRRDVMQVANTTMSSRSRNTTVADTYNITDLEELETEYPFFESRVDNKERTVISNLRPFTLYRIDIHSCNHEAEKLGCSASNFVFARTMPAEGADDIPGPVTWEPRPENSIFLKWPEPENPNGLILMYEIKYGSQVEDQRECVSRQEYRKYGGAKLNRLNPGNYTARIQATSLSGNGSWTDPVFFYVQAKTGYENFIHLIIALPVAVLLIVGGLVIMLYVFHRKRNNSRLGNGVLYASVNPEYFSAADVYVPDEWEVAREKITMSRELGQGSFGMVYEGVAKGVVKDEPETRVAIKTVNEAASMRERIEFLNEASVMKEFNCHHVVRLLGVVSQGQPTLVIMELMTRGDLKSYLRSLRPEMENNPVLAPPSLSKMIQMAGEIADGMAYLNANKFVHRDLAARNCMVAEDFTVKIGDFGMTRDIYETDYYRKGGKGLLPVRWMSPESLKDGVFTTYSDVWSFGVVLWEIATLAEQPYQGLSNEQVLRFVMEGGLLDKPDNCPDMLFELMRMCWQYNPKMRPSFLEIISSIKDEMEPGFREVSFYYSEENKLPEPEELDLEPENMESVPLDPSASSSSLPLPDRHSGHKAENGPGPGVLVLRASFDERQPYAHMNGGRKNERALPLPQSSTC
Method: (§1) FACS analysis was performed to determine the affinity of the antibody of the invention for IGF-IR from other animals, particularly the old world monkeys described above. Aliquots of human and monkey cells (cynomolgus) (5×10⁵) were incubated for 1 hour on ice with increasing concentrations of biotinylated anti-IGF-IR antibodies of the invention. The samples were incubated for 30 minutes on ice with streptavidin-conjugated RPE (phycoerythrin). Binding was measured by flow cytometry and analyzed with the histograms of fluorescence intensity (FI2-H) versus cell number (Counts) using CellQuest software. Binding (Kd) was calculated for each antibody from graphs of mean fluorescence intensity versus antibody concentration. In most experiments, binding was measured in cultured human MCF-7 cells and cynomolgus tissue culture cells. Depletion of the antibody was controlled by measuring binding over a range of cell concentrations.

mouse IGF-IR = molecular target: T3, mouse IGF-IR (mouse, UniProt Q60751 31-1373); test: cells treated with antibody, IGF-I stimulation, immunoprecipitation of IGF-IR and Western blot
T3 construct: whole, on cells
T3 sequence (Q60751 31-1373): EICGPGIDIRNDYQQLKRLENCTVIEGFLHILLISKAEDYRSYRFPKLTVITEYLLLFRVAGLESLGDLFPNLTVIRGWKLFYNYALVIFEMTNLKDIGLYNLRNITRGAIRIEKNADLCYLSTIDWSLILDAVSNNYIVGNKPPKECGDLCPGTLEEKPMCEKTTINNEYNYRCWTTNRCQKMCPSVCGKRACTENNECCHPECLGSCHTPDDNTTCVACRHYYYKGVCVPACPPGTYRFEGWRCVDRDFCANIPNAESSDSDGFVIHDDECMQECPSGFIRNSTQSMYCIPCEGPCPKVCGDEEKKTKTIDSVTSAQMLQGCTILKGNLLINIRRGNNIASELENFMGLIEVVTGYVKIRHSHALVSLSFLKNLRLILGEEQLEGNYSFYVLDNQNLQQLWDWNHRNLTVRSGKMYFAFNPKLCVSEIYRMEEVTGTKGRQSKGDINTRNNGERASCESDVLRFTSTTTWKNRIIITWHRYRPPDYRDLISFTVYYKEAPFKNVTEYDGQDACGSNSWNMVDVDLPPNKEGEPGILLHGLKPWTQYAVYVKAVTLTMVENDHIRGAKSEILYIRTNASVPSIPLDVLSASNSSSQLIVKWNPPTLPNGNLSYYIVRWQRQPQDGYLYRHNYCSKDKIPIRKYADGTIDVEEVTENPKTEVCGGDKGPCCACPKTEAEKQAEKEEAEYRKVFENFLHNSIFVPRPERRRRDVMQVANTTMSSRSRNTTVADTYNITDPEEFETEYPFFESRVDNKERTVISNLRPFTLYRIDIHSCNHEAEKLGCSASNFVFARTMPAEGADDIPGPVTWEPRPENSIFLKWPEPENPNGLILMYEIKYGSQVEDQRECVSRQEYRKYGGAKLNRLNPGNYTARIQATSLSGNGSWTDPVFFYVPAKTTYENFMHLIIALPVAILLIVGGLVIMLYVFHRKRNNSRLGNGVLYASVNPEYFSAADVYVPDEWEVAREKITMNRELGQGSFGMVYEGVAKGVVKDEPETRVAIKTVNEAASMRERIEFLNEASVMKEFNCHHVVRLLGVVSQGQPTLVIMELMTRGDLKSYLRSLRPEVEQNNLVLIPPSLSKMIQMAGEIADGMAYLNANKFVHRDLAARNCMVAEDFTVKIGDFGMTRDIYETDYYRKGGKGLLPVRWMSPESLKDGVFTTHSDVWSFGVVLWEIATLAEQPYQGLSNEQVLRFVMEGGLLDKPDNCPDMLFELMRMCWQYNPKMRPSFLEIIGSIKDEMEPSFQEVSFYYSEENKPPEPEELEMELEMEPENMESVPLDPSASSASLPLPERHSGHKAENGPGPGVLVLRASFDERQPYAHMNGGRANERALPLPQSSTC
Method: To perform immunoprecipitation experiments, cells were plated in DMEM high glucose media supplemented with L-glutamine (0.29 mg/ml), 10% heat-inactivated FBS, and 500 μg/ml each of geneticin, penicillin and streptomycin to 50% confluence in T25 flasks. 100 μl of an antibody of the invention in Hank's buffered saline solution (HBSS; Gibco BRL) at a concentration of 1 μg/ml was added. The plates were incubated for 30 minutes at 37° C. in an incubator and then stimulated cells with IGF-I at 100 ng/ml for 10 minutes at room temperature. The cells were lysed in RIPA buffer (Harlow and Lane, supra) and immunoprecipitated the IGF-IR with 2 μg of pan-specific SC-713 anti-IGF-IR antibody (Santa Cruz) plus protein A agarose beads for 1 hour at 4° C. The beads were pelleted and washed three times with PBS/T (PBS+0.1% Tween-20) and then boiled in 40 μl Laemmli buffer containing 5% ME.
The samples prepared as described above were then analyzed by Western blot. 12 μl of each sample were loaded per lane on 4-10% gradient Novex™ gels run with 1×MES buffer (Novex™). Gels were run at 150V for 1 hour or at 200V for approximately 30 minutes. The gel was transferred to a membrane in Novex™ transfer buffer with 10% methanol either overnight at 100 mA or for 1-1.5 hours at 250 mA. […]

[3] = molecular target: T1, human insulin-like growth factor I …; test: flow cytometry, biotinylated antibody on human cells (MCF-7), half maximal binding
Method: as §1

T1 sequence (P08069 31-1367): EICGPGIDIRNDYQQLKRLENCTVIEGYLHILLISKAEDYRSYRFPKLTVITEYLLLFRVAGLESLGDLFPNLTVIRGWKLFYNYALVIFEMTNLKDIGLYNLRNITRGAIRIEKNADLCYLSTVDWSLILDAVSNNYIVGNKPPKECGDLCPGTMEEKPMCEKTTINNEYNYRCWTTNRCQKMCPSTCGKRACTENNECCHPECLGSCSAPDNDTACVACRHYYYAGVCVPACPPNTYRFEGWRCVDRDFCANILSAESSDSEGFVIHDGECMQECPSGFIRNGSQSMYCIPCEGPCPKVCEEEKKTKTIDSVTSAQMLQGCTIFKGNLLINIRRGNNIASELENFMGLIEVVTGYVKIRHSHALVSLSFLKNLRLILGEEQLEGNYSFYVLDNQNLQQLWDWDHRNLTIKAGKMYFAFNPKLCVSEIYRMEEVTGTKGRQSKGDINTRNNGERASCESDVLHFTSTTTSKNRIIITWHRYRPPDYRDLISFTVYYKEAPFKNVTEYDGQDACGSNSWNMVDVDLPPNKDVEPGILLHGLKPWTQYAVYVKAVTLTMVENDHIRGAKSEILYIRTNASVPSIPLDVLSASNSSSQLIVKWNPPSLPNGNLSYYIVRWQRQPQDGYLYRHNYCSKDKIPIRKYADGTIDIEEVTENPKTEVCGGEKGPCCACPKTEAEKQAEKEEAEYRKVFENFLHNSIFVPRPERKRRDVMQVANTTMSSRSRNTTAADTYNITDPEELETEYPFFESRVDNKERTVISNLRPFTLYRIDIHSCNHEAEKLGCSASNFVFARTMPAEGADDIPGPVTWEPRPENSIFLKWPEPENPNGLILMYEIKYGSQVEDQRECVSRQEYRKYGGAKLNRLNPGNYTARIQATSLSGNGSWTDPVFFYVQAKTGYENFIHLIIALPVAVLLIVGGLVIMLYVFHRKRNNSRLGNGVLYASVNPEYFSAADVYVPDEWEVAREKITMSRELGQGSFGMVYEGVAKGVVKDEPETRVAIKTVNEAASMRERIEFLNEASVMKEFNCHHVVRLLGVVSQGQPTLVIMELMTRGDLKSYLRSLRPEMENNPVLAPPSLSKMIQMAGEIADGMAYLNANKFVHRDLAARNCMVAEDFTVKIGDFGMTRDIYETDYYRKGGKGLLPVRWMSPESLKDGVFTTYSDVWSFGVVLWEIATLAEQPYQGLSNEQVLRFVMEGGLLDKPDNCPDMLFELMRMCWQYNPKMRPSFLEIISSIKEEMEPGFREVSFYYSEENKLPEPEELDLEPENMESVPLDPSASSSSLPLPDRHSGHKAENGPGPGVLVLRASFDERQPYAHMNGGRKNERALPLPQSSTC

B1: anti-IGF-IR antibody 2.12.1fx (antibody, human IgG2, kappa, V domains shown)
VH: QVQLVESGGGLVKPGGSLRLSCAASGFTFSDYYMSWIRQAPGKGLEWVSYISSSGSTRDYADSVKGRFTISRDNAKNSLYLQMNSLRAEDTAVYYCARDGVETTFYYYYYGMDVWGQGTTVTVSS
VL: DIQMTQSPSSLSASVGDRVTITCRASQDIRRDLGWYQQKPGKAPKRLIYAASRLQSGVPSRFSGSGSGTEFTLTISSLQPEDFATYYCLQHNNYPRTFGQGTKVEIKR
notes: also called the antibody of the invention; the antibody of this invention
Q: What does the source list for B1?
A: IC50 of inhibition of IGF-I-induced tyrosine phosphorylation of IGF-IR (ELISA on lysates of IGF-IR-transfected NIH-3T3 cells) [1]: 0.42 mg/L; IC50 [2]: 0.4 mg/L; Kd (cynomolgus monkey IGF-IR): 0.1 mg/L; binding result (mouse IGF-IR): no binding (tested: 1 µg/ml); Kd [3]: 0.1 mg/L
